Four molecules from PMC3756911 (Nature, 2013) can be followed below.

B1: hnRNPA1 wild-type (full-length) (natural protein)
chain: MSKSESPKEPEQLRKLFIGGLSFETTDESLRSHFEQWGTLTDCVVMRDPNTKRSRGFGFVTYATVEEVDAAMNARPHKVDGRVVEPKRAVSREDSQRPGAHLTVKKIFVGGIKEDTEEHHLRDYFEQYGKIEVIEIMTDRGSGKKRGFAFVTFDDHDSVDKIVIQKYHTVNGHNCEVRKALSKQEMASASSSQRGRSGSGNFGGGRGGGFGGNDNFGRGGNFSGRGGFGGSRGGGGYGGSGDGYNGFGNDGSNFGGGGSYNDFGNYNNQSSNFGPMKGGNFGGRSSGPYGGGGQYFAKPRNQGGYGGSSSSSSYGSGRRF
B2: hnRNPA1-D262N (full-length) (natural protein)
chain: B1 chain with D262N
B3: hnRNPA2 wild-type (full-length) (natural protein)
chain: MEREKEQFRKLFIGGLSFETTEESLRNYYEQWGKLTDCVVMRDPASKRSRGFGFVTFSSMAEVDAAMAARPHSIDGRVVEPKRAVAREESGKPGAHVTVKKLFVGGIKEDTEEHHLRDYFEEYGKIDTIEIITDRQSGKKRGFGFVTFDDHDPVDKIVLQKYHTINGHNAEVRKALSRQEMQEVQSSRSGRGGNFGFGDSRGGGGNFGPGPGSNFRGGSDGYGSGRGFGDGYNGYGGGPGGGNFGGSPGYGGGRGGYGGGGPGYGNQGGGYGGGYDNYGGGNYGSGNYNDFGNYNQQPSNYGPMKSGNFGGSRNMGGPYGGGNYGPGGSGGSGGYGGRSRY

Residue numbers refer to the chain shown, from its start. Names may count otherwise.

Data set [1] concerns the molecule itself. Nature of the data set: thioflavin-T fluorescence + electron microscopy.
For data set [2], the target named is hnRNPA1-D262V (full-length) (human, UniProt P09651-2 1-320, D262V). The data set is described as follows: cross-seeded fibrillization, sedimentation analysis.
Data set [3] addresses B2. The description is as above.
Data set [4] concerns the molecule itself. The data set is described as follows: seeded fibrillization, sedimentation analysis.
Data set [5] addresses hnRNPA2 D290V (full-length) (human, UniProt P22626-2 1-341, D290V). The data set is described as follows: cross-seeded fibrillization, sedimentation analysis.

For NYNVFG [A2 D290V hexapeptide (NYNVFG)], the binding result in data set [1] is “binds”.

For B1, the binding result in data set [2] and in data set [3] was “binds” in each case. B2: in data set [4], the binding result is given as “binds”. In the case of B3, the binding result in data set [5] is “binds”.
